Laboratory results: patent US20260273049A1 (ALLIGATOR BIOSCIENCE, published 2026)

Key:
[1] = biological target: T1, human CEACAM1 (hCEACAM-1, #2244-CM-050, R&D Systems) (human, UniProt P13688 35-428); test: ELISA; antigen coated at 0.5 µg/mL, bsAb titrated, anti-human kappa-HRP, luminescence [5/7) Multi44]
T1 construct: Bought protein
T1 sequence (looked up): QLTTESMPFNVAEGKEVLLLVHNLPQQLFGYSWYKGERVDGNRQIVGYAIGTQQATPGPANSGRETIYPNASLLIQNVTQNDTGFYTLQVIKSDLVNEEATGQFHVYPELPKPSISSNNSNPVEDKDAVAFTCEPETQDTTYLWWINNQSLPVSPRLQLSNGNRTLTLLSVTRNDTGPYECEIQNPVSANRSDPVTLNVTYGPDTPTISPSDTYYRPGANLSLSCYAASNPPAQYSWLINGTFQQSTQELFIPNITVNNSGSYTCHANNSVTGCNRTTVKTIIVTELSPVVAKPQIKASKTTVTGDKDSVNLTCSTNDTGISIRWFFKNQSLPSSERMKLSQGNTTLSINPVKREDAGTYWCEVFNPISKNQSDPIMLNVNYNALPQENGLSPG
Experimental: (§1) 96-well plates were coated with 0.5 μg/mL antigen, hCEACAM-1 (2244-CM-050, R&D Systems), hCEACAM-5 (4128-CM-050, R&D Systems), hCEACAM-6 (3934-CM-050, R&D Systems) or CEACAM-8 (9639-CM-050, R&D Systems) in PBS over night at 4° C. After washing in PBS/0.05% Tween 20 (PBST), the plates were blocked with PBST, 2% BSA for at least 30 minutes at room temperature before a second round of washing. RUBY bsAbs, diluted in PBST, 0.5% BSA, were then added and allowed to bind for at least 1 hour at room temperature. […] Finally, a final round of washing was performed and bound complexes detected using SuperSignal Pico Luminescent as substrate and luminescence signals were measured using Fluostar Optima.

[2] = biological target: T2, human CEACAM6 (hCEACAM-6, #3934-CM-050, R&D Systems) (human, UniProt P40199 35-320); test: as above
T2 construct: Bought protein
T2 sequence (looked up): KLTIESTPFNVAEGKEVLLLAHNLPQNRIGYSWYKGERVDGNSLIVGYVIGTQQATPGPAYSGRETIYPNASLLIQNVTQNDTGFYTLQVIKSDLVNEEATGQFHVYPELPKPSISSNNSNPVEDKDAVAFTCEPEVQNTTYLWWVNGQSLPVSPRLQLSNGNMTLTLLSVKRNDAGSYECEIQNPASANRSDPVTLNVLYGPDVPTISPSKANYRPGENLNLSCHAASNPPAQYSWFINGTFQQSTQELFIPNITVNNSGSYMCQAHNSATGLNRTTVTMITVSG
Experimental: as §1

[3] = biological target: T3, human CEACAM1 expressed on CHO cells (human, UniProt P13688 35-526); test: flow cytometry on CEACAM1-transfected CHO cells, fluorochrome-conjugated anti-human IgG [1/2) B]
T3 construct: whole, on cells; also called CHO-CEACAM1; CEACAM1 on cells
T3 sequence (looked up): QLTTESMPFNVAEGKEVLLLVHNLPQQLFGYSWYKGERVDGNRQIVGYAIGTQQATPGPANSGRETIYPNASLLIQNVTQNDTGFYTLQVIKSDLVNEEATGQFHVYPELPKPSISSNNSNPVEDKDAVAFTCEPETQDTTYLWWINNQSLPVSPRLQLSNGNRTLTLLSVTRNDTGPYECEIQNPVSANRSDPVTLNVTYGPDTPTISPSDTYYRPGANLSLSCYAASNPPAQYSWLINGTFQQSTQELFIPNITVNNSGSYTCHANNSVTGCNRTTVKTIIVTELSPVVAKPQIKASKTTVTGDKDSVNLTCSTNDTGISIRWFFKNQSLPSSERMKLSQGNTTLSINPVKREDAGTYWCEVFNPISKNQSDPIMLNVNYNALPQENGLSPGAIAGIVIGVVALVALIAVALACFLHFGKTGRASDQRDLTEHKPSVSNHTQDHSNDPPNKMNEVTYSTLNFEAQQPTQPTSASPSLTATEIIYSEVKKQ
Description: The human CEACAM5 and CEACAM1 genes were cloned into pcDNA3.1, and the vector was subsequently stably transfected into CHO cells. […] Binding of the antibodies was detected using fluorochrome-conjugated anti-human IgG and analyzed using flow cytometry.

[4] = biological target: human CD40 expressed on cells (CD40 reporter cells, HEK Blue CD40L cells, B cells, Raji cells) (human, UniProt P25942 21-277); test: cell-based or functional assay
human CD40 expressed on cells (CD40 reporter cells, HEK Blue CD40L cells, B cells, Raji cells), sequence (P25942 21-277): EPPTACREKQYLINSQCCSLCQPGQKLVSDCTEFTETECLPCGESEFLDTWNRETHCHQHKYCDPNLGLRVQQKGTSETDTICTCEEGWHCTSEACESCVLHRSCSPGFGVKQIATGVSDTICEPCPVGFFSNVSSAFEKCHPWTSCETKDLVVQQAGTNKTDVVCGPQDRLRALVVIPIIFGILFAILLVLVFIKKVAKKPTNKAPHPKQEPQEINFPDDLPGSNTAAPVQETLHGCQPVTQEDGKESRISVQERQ

B1: Multi44 (bispecific antibody)
heavy 1: not shown
light: DIQMTQSPSSLSASVGDRVTITCRASQSISSYLNWYQEKPGKAPKLLIYAASSLQSGVPSRFSGSGSGTDFTLTISSLQPEDFATYYCQQWGYLLTFGQGTKLEIKRTVAAPSVFIFPPSDEQLKSGTASVVCYLNNFYPREAKVQWKVDNALQSGNSQESVTEQDSKDSTYSLWSTLTLSKADYEKHKVYACEVTHQGLSSPVTKSFNRGEC
heavy 2: EVQLLESGGGLVQPGGSLRLSCAASGFTFSTYGMHWVREAPGKGLEWLSYISGGSSYIFYADSVKGRFTISRDNSKNTLYLQMNSLRAEDTAVYYCARILRGGSGMDLWGQGTLVTVSSASTKGPSVFPLAPSSKSTSGGTAALGCLVKDYFPEPVTVSWNSGALTSGVHTFPAVLQSSGLYSLTSVVEVPSSSLGTQTYICNVNHKPSNTKVDKKVEPKSC
notes: Optimized RUBY format; copies: 2 + 2 + 2
[1]
  binding result: no binding (tested: 100 nM)
[2]
  binding result: no binding (tested: 100 nM)
[3]
  binding result: no binding (tested: 400 nM)
[4]
  EC50 (nM), HEK Blue CD40L SEAP reporter, CHO-CEACAM5 crosslinking, 0 Raji sink cells/well: 0.02 nM
  EC50 (nM), HEK Blue CD40L SEAP reporter, CHO-CEACAM5 crosslinking, 10 000 Raji sink cells/well: 0.05 nM
  EC50 (nM), HEK Blue CD40L SEAP reporter, CHO-CEACAM5 crosslinking, 30 000 Raji sink cells/well: 0.08 nM
  EC50 (nM), HEK Blue CD40L SEAP reporter, CHO-CEACAM5 crosslinking, 90 000 Raji sink cells/well: 0.16 nM
